Assay results published in PMC10033279.

Substrate: NC(=O)C1=CN([C@@H]2O[C@H](COP(=O)(O)OP(=O)(O)OC[C@H]3O[C@@H](n4cnc5c(N)ncnc54)[C@H](O)[C@@H]3O)[C@@H](O)[C@H]2O)C=CC1
Experiment: purified protein
Format: biochemical, Pseudomonas aeruginosa
Settings: varied 1,4-benzoquinone, 20 mM KPi, 200 mM NaCl, pH 7.0, 25 °C

B1: NADH:quinone oxidoreductase (NQO), PA1024 (Pseudomonas aeruginosa PAO1) (protein)
chain: MGVFRTRFTETFGVEHPIMQGGMQWVGRAEMAAAVANAGGLATLSALTQPSPEALAAEIARCRELTDRPFGVNLTLLPTQKPVPYAEYRAAIIEAGIRVVETAGNDPGEHIAEFRRHGVKVIHKCTAVRHALKAERLGVDAVSIDGFECAGHPGEDDIPGLVLLPAAANRLRVPIIASGGFADGRGLVAALALGADAINMGTRFLATRECPIHPAVKAAIRAADERSTDLIMRSLRNTARVARNAISQEVLAIEARGGAGYADIAALVSGQRGRQVYQQGDTDLGIWSAGMVQGLIDDEPACAELLRDIVEQARQLVRQRLEGMLAGV
notes: full-length gene PA1024 in pET20b(+), expressed in E. coli Rosetta(DE3)pLysS, purified; EC 1.6.5.9
**Q.** What does the source list for B1?
**A.** Km: 70 ± 10 µM; kcat: 27 ± 1 s⁻¹
